Source: paper PMC5792643
pKd: −log10 of the molar value.

Legend:
[1] = target: G-actin (monomeric actin from chicken muscle) (chicken) (UniProt P68139); assay: ITC
[2] = target: G-actin (monomeric actin) (chicken) (UniProt P68139); assay: ITC

Substance | stoichiometry N [1] | pKd [2] | stoichiometry N [2]
Tarp_(726–825) (translocated actin recruiting phosphoprotein, G-actin binding region) (domain or fragment) | 1 |  | 
Tarp_(726–825) (translocated actin recruiting phosphoprotein, residues 726–825, containing the G-actin binding domain) (from UniProt Q6GX35 726-825) (domain or fragment) |  | 6.99 | 1
